Assay results taken from patent publication US20210115146A1 (WUXI BIOLOGICS IRELAND, published 2021).
“And” between values parts separate entries of the source, which are not always exact repeats. Equal entries are not always repeated.

Assays:
[1] = molecular target: T1, human EGFR ECD protein (W562-hPro1.ECD.his) (human, UniProt P00533 25-645); assay: SPR (ProteOn XPR36), antibody captured by anti-human IgG Fc, EGFR ECD.his as analyte
T1 construct: extracellular domain; Made in HEK293 cells
Description: Each antibody was captured on an anti-human IgG Fc antibody immobilized GLM sensor chip (Bio-Rad). W562-hPro1.ECD.his at different concentrations was injected over the sensor chip at a flow rate of 100 uL/min for an association phase of 240 s, followed by 1800 s dissociation. The chip was regenerated by 10 mM glycine (pH 1.5) after each binding cycle. The sensorgrams of blank surface and buffer channel were subtracted from the test sensorgrams. The experimental data was fitted by 1:1 binding model using Langmiur analysis. Molecular weight of 85 kDa was used to calculate the molar concentration of analyte.

[2] = molecular target: T2, mouse EGFR (cell surface) (mouse, UniProt Q01279 25-1210); assay: FACS on cells expressing mouse EGFR
T2 construct: whole, on cells; also called W562-CHO-K1.mProl.F3 cells
Description: (§1) The binding of antibodies to cell surface EGFR was assessed by FACS with EGFR transfected cells and A431 cell line, which over expresses human EGFR. 1×10⁵ cells/well were plated in a 96-well plate and centrifuged at 210 g for 5 minutes at 4° C. After removing the supernatant, the cell pellets were re-suspended with serial dilutions of testing purified antibodies in 1% BSA-PBS and incubated for 1 hour at 4° C., followed by incubation with FITC conjugated goat anti-human IgG (Jackson ImmunoResearch) at 4° C. for 1 hour. Two times of washing with 200 μl/well 1% BSA-PBS were applied between each step. Finally, the cells were resuspended in 100 μl 1% BSA-PBS for flow cytometry analysis (Intellicyt).

[3] = molecular target: T3, human EGFR (cell surface) (human, UniProt P00533 25-1210); assay: FACS competition with EGF-biotin (50 ng/ml) on A431 cells
T3 construct: whole, on cells; also called W562-CHO-K1.hPro1.E9 cells; A431 cells
Description: EGFR-expressing A431 cells were routinely maintained in DMEM containing 10% FBS, 10 mM HEPES and L-glutamine. 10⁵ cells per well were added to each well of a 96-well plate and centrifuged at 210 g for 5 minutes at 4° C. before the supernatant was removed. Serial dilutions of test antibodies were added to the pelleted cells and incubated for 1 hour at 4° C. […] MFI of the cells was measured by flow cytometry and analyzed by FlowJo.

[4] = molecular target: T3, human EGFR (cell surface); assay: FACS on cells carrying human EGFR
Description: as §1

[5] = molecular target: T4, Macaca fascicularis EGFR (cell surface) (Macaca fascicularis, UniProt A0A2K5WK39 25-1210); assay: FACS on cells expressing monkey EGFR
T4 construct: whole, on cells; also called monkey EGFR; cyno EGFR
Description: as §1

[6] = molecular target: T3, human EGFR (cell surface); assay: FACS binding to A431 cells (printed 'A432' in paragraph 253) after 0, 1, 4, 7 and 14 days in human serum at 37 C; lower panel
Description: Freshly collected human blood was incubated in polystyrene tubes without anticoagulant for 30 minutes at room temperature. The Serum was collected after centrifugation the blood at 4000 rpm for 10 minutes. Repeat the centrifugation until the serum was clarifying. Gently mix antibodies with serum and ensure the serum content >95%. The mix aliquots were incubated at 37° C. for 0 day, 1 day, 4 days, 7 days and 14 days, respectively. At the indicated time point the samples were quickly-frozen in liquid nitrogen and stored at −80° C. until analysis. The cell bindings of the serial dilutions of the antibody samples to A432 cells were analyzed by FACS. Four-parameter non-linear regression analysis was used to obtain EC₅₀ values for cell binding using GraphPad Prism 5 software (GraphPad Software, La Jolla, Calif.).

[7] = molecular target: T3, human EGFR (cell surface); assay: cell-based or functional assay
[8] = molecular target: T5, human EGFRvIII (cell surface) (human, UniProt P00533 25-1210); assay: FACS affinity on transfected cells, quantitative beads
T5 construct: whole, on cells; also called hEGFRIII; EGFR variant III
Description: (§2) Human, cyno, mouse EGFR and human EGFRvIII transfected cells were transferred in to 96-well U-bottom plates (BD) at a density of 5×10⁴ cells/well, respectively. Testing antibodies were 1:3.16-fold serially diluted in 1% BSA-PBS and incubated with the cells at 4° C. for 1 hr. The secondary antibody, Alexa647 conjugated goat anti-human IgG Fc (Jackson Immunoresearch Lab), was added to resuspended cells and incubated at 4° C. in the dark for 1 hr. The cells were then washed once and resuspended in PBS with 1% BSA, and analyzed by flow cytometery (BD). Fluorescence intensity was converted to bound molecules/cell based on the quantitative beads (Quantum™ MESF Kits, Bangs Laboratories). KD was calculated using Graphpad Prism5.

[9] = molecular target: T2, mouse EGFR (cell surface); assay: as above
Description: as §2

[10] = molecular target: T3, human EGFR (cell surface); assay: as above
Description: as §2

[11] = molecular target: T4, Macaca fascicularis EGFR (cell surface); assay: as above
Description: as §2

Kd [1]: 162 pM
koff [1]: 0.000105 s⁻¹
kon [1]: 646000 M⁻¹ s⁻¹
EC50 [2]: 1060 pM
IC50 [3]: 2580 pM
EC50 [4]: 990 pM
EC50 [5]: 580 pM
EC50 (read off the curve) [6]: ~800 pM
IC50 of inhibition of EGFR phosphorylation (pEGFR sandwich ELISA, A431 cells stimulated with EGF) [7]: 10.4 nM and 22.6 nM
Bmax [8]: 590 pM
Kd [8]: 320 pM
Bmax [9]: 890 pM
Kd [9]: 540 pM
Bmax [10]: 920 pM
Kd [10]: 1400 pM
Bmax [11]: 230 pM
Kd [11]: 230 pM
B1: W5626-2C10-z5 (humanized VHH of W5626-2C10 further comprising a human Fc of IgG1 isotype) (Fc fusion)
chain: AVQLVESGGGLVQPGGSLTLSCAASGRTFSSYAMGWFRQAPGKEREFVAADRWSGGNTRYADSVKGRFTISRDNAKNTLYLQMNSLRAEDTAVYYCAATYLSSDYEWGVPPKAYDYDYWGQGTLVTVSS
notes: Bivalent humanized VHH linked with human IgG1 Fc region; not shown: human IgG1 Fc region from a modified pcDNA3.3 vector
EC50 of EGFR internalization (Fab-ZAP, viability of A431 cells) [7]: 210 pM
